Laboratory results: patent US20240123088A1

Biological target: RmaDnaB-SpdCas9C (Rhodothermus marinus DnaB C-intein fused to the C-terminal split SpdCas9, HA-tagged) (Rhodothermus marinus (C-intein); Streptococcus pyogenes (dCas9 half)) (UniProt Q99ZW2)
Assay: cell-based or functional assay

Substance “SpdCas9N-RmaDnaB (N-terminal split SpdCas9 fused to the Rhodothermus marinus DnaB N-intein, FLAG-tagged)” has an in vivo reconstitution of tsdCas9, Western blot band intensity, mouse striatum co-transduced with AAV9 of over 50%.
